Test results reported in US20100261872A1, “Factor VIII: remodeling and glycoconjugation of factor VIII” (Neose Technologies, Inc., published 2010).

How the values were obtained:
[1] = target: Cri-IgG1 monoclonal antibody (non-recombinant, isolated from a human myeloma) (human)
[2] = target: Fc Cri-IgG1 (Cri-IgG1 treated with a protease so that only the Fc portion remained) (human)
[3] = target: Recombinant human erythropoietin (rhEPO) from the baculovirus/Sf9 expression system (Protein Sciences) (human)
Target sequence in this assay (chain, as listed by the source): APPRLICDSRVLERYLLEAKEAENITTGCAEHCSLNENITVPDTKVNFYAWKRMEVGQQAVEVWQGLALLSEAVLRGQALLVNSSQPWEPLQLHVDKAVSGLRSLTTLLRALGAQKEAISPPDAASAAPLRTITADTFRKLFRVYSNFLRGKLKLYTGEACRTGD

[4] = target: Ribonuclease B (RNaseB) purified from bovine pancreas (Sigma) (bovine) (UniProt P61823)
[5] = target: Recombinant human erythropoietin (rhEPO) from the baculovirus/Sf9 expression system (Protein Sciences) (human); remark: listed apart in the source
[6] = target: Cri-IgG1 monoclonal antibody (non-recombinant, isolated from a human myeloma) (human); remark: listed apart in the source
[7] = target: Fc Cri-IgG1 (Cri-IgG1 treated with a protease so that only the Fc portion remained) (human); remark: listed apart in the source
[8] = target: Recombinant human erythropoietin (rhEPO) from the baculovirus/Sf9 expression system (Protein Sciences) (human); remark: listed apart in the source
[9] = target: Cri-IgG1 monoclonal antibody (non-recombinant, isolated from a human myeloma) (human); remark: listed apart in the source
[10] = target: Fc Cri-IgG1 (Cri-IgG1 treated with a protease so that only the Fc portion remained) (human); remark: listed apart in the source
[11] = target: Recombinant human erythropoietin (rhEPO) from the baculovirus/Sf9 expression system (Protein Sciences) (human); remark: listed apart in the source
Target sequence in this assay (chain, as listed by the source): as above

[12] = target: Asialo-fetuin (Sigma)
[13] = target: ATIII (Antithrombin III) from Genzyme Transgenics (human)
[14] = target: asialo-α1 Antitrypsin (PPL) (human)
[15] = target: Cri-IgG1 monoclonal antibody (non-recombinant, isolated from a human myeloma) (human); remark: listed apart in the source
[16] = target: Fc Cri-IgG1 (Cri-IgG1 treated with a protease so that only the Fc portion remained) (human); remark: listed apart in the source
[17] = target: Ribonuclease B (RNaseB) purified from bovine pancreas (Sigma) (bovine) (UniProt P61823); remark: listed apart in the source
[18] = target: Recombinant human erythropoietin (rhEPO) from the baculovirus/Sf9 expression system (Protein Sciences) (human); remark: listed apart in the source
Target sequence in this assay (chain, as listed by the source): as above

Chain of Ribonuclease B (RNaseB) purified from bovine pancreas (Sigma) (bovine) (P61823 27-150): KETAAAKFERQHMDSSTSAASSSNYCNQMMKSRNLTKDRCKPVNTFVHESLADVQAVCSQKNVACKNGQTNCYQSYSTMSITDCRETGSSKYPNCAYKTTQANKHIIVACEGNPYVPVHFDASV
Chain of asialo-α1 Antitrypsin (PPL) (human) (chain, as listed by the source limits assumed): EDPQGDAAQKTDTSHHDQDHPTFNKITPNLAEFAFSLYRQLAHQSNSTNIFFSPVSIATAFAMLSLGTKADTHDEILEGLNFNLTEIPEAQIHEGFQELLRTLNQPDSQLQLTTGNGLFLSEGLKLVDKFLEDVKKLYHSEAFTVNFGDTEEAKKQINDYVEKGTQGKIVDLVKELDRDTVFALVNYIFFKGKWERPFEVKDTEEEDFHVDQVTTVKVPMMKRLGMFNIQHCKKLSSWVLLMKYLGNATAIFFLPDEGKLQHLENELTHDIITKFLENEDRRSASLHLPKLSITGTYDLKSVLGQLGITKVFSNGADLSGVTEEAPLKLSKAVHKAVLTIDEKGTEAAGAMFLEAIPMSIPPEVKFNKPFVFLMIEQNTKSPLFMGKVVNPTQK

In the case of “GalT1 (β1,4 galactosyltransferase 1) (from UniProt P08037) (enzyme)”, the relative amount of the G2 glycoform by CE [1] is reported as 90%, the relative amount of the G2 glycoform by CE [2] is reported as 84% and the released glycans with terminal galactose (HPLC, MALDI) [3] is reported as 97%. The addition of Gal; MALDI-TOF [4] was 98%.

For GnT-V (enzyme), the conversion to the tri-antennary glycan (2AA HPLC) [5] was 92%.

“β-N-acetylhexosaminidase (from Jack Bean, Seikagaku) (enzyme)” gave a relative amount of the M3N2F glycoform by CE [6] of 91.4% and a relative amount of the M3N2F glycoform by CE [7] of 100%.

“ST6Gal1 (α2,6-sialyltransferase) (enzyme)” gave an incorporation of radiolabelled sialic acid (% of the radiolabel) [8] of 5.7.

B1: GnT-II (β1,2-mannosyl-UDP-N-acetylglucosaminosyltransferase II) (enzyme)
chain: RQRKNEALAPPLLDAEPARGAGGRGGDHPSVAVGIRRVSNVSAASLVPAVPQPEADNLTLRYRSLVYQLNFDQTLRNVDKAGTWAPRELVLVVQVHNRPEYLRLLLDSLRKAQGIDNVLVIFSHDFWSTEINQLIAGVNFCPVLQVFFPFSIQLYPNEFPGSDPRDCPRDLPKNAALKLGCINAEYPDSFGHYREAKFSQTKHHWWWKLHFVWERVKILRDYAGLILFLEEDHYLAPDFYHVFKKMWKLKQQECPECDVLSLGTYSASRSFYGMADKVDVKTWKSTEHNMGLALTRNAYQKLIECTDTFCTYDDYNWDWTLQYLTVSCLPKFWKVLVPQIPRIFHAGDCGMHHKKTCRPSTQSAQIESLLNNNKQYMFPETLTISEKFTVVAISPPRKNGGWGDIRDHELCKSYRRLQ
Molecule B1 has a % peak area of the bisecting (NGA2F) glycoform by CE [9] of 63.6%, a % peak area of the bisecting (NGA2F) glycoform by CE [10] of 58.4% and a completion of the bi-antennary GlcNAc glycan (HPLC, MALDI) [11] greater than 99%.

B2: ST3Gal III (α2,3-sialyltransferase, EC 2.4.99.6) (enzyme)
chain: KLHLLQWEDSNSLILSLDSAGQTLGTEYDRLGFLLKLDSKLPAELATKYANFSEGACKPGYASAMMTAIFPRFSKPAPMFLDDSFRKWARIREFVPPFGIKGQDNLIKAILSVTKEYRLTPALDSLHCRRCIIVGNGGVLANKSLGSRIDDYDIVIRLNSAPVKGFEKDVGSKTTLRITYPEGAMQRPEQYERDSLFVLAGFKWQDFKWLKYIVYKERVSASDGFWKSVATRVPKEPPEIRILNPYFIQEAAFTLIGLPFNNGLMGRGNIPTLGSVAVTMALDGCDEVAVAGFGYDMNTPNAPLHYYETVRMAAIKESWTHNIQREKEFLRKLVKARVITDLSSGI
B2 gave a % Rxn (completion of sialylation by 14C-NeuAc incorporated, against terminal Gal content) [12] of 116%, a % Rxn (completion of sialylation by 14C-NeuAc incorporated, against terminal Gal content) [13] of 117% and a % Rxn (completion of sialylation by 14C-NeuAc incorporated, against terminal Gal content) [14] of 100%. For the same molecule, the incorporation of radiolabelled sialic acid [8] was 10.9 moles/mole, the relative amount of the S2G2 glycoform by HPLC (peak at 49.4 min) [15] was 58.9% and the relative amount of the S2G2 glycoform by HPLC (peak at 49.4 min) [16] was 61.9%. It also gave an addition of sialic acid; MALDI-TOF [17] of 90%.

B3: GnT-III (β1,4-mannosyl-UDP-N-acetylglucosaminosyltransferase III) (enzyme)
chain: HFFKTLSYVTFPRELASLSPNLISSFFWNNAPVTPQASPEPGDPDLLRTPLYSHSPLLQPLSPSKATEELHRVDFVLPEDTTEYFVRTKAGGVCFKPGTRMLEKPSPGRTEEKTEVSEGSSARGPARRPMRHVLSSRERLGSRGTRRKWVECVCLPGWHGPSCGVPTVVQYSNLPTKERLVPREVPRRVINAININHEFDLLDVRFHELGDVVDAFVVCDSNFTAYGEPRPLKFREMLTNGTFEYIRHKVLYVFLDHFPPGGRQDGWIADDYLRTFLTQDGVSRLRNLRPDDVFIIDDADEIPARDGVLFLKLYDGWTEPFAFHMRKSLYGFFWKQPGTLEVVSGCTMDMLQAVYGLDGIRLRRRQYYTMPNFRQYENRTGHILVQWSLGSPLHFAGWHCSWCFTPEGIYFKLVSAQNGDFPRWGDYEDKRDLNYIRSLIRTGGWFDGTQQEYPPADPSEHMYAPKYLLKNYDQFRYLLENPYREPKSTVEGGRQNQGSDGRSSAVRGKLDTAEG
B3 gave a % peak area of the bisecting (NGA2F) glycoform by CE [9] of 63.6% and a % peak area of the bisecting (NGA2F) glycoform by CE [10] of 58.4%.

B4: GnT-I (β1,2-mannosyl-UDP-N-acetylglucosaminosyltransferase I) (enzyme)
chain: TRPAPGRPPSVSALDGDPASLTREVIRLAQDAEVELERQRGLLQQIGDALSSQRGRVPTAAPPAQPRVPVTPAPAVIPILVIACDRSTVRRCLDKLLHYRPSAELFPIIVSQDCGHEETAQAIASYGSAVTHIRQPDLSSIAVPPDHRKFQGYYKIARHYRWALGQVFRQFRFPAAVVVEDDLEVAPDFFEYFRATYPLLKADPSLWCVSAWNDNGKEQMVDASRPELLYRTDFFPGLGWLLLAELWAELEPKWPKAFWDDWMRRPEQRQGRACIRPEISRTMTFGRKGVSHGQFFDQHLKFIKLNQQFVHFTQLDLSYLQREAYDRDFLARVYGAPQLQVEKVRTNDRKELGEVRVQYTGRDSFKAFAKALGVMDDLKSGVPRAGYRGIVTFQFRGRRVHLAPPLTWEGYDPSWN
With B4 the conversion of the tri-mannosyl glycoform to 'tri-mannosyl core+2 GlcNAc' (2-AA HPLC) [18] was 100%.
